Values joined by “and” are separate entries in the source; they are usually repeats but may differ in a detail not shown here. Identical values can stand only once.
Assays:
Conditions in all cases: both partners purified
[1] = biological target: T1, Androgen receptor splice variant‐7 (AR‐V7), recombinant from E. coli (UniProt P10275-3 1-644); test: ITC; protein (around 20 µM, 0.2 ml) in the sample cell, peptide (around 200 µM) in the syringe; 25 °C; first injection 0.4 µl, then 19 injections of 2 µl
T1 construct: Plasmid bought from GenScript; also called pET‐28a (AR – V7); pET28‐AR‐V7; not shown: His tag (from the vector pET‐28a)
T1 sequence (looked up): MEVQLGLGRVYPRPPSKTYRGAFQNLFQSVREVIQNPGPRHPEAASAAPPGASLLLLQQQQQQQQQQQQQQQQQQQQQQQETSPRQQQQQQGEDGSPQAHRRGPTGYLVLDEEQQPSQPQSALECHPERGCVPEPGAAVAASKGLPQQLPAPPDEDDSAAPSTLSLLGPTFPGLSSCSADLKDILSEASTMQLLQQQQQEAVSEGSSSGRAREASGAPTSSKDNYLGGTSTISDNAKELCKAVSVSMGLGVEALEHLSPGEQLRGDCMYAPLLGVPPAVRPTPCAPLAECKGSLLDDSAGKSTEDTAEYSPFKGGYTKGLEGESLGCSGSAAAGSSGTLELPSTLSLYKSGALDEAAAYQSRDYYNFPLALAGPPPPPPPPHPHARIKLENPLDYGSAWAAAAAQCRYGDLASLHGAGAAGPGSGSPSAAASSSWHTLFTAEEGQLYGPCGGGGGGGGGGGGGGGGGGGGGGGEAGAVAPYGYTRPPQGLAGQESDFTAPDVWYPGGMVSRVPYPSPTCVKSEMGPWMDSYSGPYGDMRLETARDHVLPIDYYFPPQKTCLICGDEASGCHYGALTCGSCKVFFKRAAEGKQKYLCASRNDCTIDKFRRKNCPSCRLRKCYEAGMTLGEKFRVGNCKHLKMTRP

[2] = biological target: T2, MDM2, recombinant from E. coli (UniProt Q00987 1-491); test: as above
T2 construct: E3 ligase MDM2; Plasmid bought from GenScript; also called E3 ligase MDM2; pET‐28a (MDM2)
T2 sequence (Q00987 whole entry): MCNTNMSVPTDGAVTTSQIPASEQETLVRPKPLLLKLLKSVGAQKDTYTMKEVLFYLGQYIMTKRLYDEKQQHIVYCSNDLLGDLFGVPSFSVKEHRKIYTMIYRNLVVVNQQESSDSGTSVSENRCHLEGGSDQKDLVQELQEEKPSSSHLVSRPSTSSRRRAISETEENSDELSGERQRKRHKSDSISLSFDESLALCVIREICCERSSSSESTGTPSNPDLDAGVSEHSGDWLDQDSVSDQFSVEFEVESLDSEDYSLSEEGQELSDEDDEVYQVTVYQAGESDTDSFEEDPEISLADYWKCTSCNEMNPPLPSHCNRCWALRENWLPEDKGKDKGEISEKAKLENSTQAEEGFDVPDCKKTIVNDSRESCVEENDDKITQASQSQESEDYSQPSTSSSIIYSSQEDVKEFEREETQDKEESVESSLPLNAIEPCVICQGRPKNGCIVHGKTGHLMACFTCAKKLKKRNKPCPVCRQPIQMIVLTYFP

[3] = biological target: T3, MDMX (UniProt O15151 1-490); test: as above
T3 construct: MDMX; MDMX is not in the methods' list of proteins made in E. coli
T3 sequence (looked up): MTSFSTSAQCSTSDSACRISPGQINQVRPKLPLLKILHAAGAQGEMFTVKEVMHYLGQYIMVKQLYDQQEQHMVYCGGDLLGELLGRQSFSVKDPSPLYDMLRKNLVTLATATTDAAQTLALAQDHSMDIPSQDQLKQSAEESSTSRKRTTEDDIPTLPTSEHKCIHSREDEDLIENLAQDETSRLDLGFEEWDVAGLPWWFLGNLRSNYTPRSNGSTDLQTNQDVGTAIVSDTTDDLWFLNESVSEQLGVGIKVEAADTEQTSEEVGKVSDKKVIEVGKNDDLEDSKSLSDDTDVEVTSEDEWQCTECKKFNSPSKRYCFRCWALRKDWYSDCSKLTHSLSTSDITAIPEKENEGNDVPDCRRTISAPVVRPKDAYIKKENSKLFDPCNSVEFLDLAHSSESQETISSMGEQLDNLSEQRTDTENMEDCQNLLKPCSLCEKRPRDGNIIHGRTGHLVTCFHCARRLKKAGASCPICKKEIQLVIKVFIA

[4] = biological target: T4, AR DBD domain protein, labeled with rhodamine B (rhodamine B label); test: fluorescence polarisation; rhodamine B labeled AR DBD, 200 nM of AR DBD dimer in complex with DNA, rising AR pep‐PROTAC concentration; maximum FP taken as 100% dimer, minimum as monomer
T4 chain: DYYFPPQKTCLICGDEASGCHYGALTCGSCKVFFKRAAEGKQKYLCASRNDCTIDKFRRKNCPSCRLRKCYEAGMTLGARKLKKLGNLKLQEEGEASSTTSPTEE

B1: AR pep‐PROTAC drug (designed peptide PROTAC) (peptide)
peptide: YLCSSNNNRERDKFRRGGSGGTSFEQFWAWLWP
notes: flexible linker; Free peptide in ITC and fluorescence polarisation; also called AR DBD PROTAC; AR DBD PROTAC drug; source: synthetic peptide (solid‐phase peptide synthesis, preparative HPLC)
[1]
  Kd: 49.6 nM and 49.5 nM
[2]
  Kd: 12.2 nM
[3]
  Kd: 1430 nM
[4]
  EC50: 1800 nM

Source: PMC9534960, “De Novo Design of an Androgen Receptor DNA Binding Domain‐Targeted peptide PROTAC for Prostate Cancer Therapy” (Advanced Science, 2022)
